Measured values: patent publication US20240301385, “DNA MODIFYING ENZYMES AND ACTIVE FRAGMENTS AND VARIANTS THEREOF AND METHODS OF USE” (LIFEEDIT THERAPEUTICS, INC., published 2024)

Experiments:
nAPG07433.1-APG09980 = molecular target: T1, nAPG07433.1-APG09980 (synthetic); experiment: cell_activity; HEK293FT; C>G predominant; PAM SEQ 152; conditions: tags: SV40 NLS, 3xFLAG N-term; nucleoplasmin NLS C-term
T1 chain: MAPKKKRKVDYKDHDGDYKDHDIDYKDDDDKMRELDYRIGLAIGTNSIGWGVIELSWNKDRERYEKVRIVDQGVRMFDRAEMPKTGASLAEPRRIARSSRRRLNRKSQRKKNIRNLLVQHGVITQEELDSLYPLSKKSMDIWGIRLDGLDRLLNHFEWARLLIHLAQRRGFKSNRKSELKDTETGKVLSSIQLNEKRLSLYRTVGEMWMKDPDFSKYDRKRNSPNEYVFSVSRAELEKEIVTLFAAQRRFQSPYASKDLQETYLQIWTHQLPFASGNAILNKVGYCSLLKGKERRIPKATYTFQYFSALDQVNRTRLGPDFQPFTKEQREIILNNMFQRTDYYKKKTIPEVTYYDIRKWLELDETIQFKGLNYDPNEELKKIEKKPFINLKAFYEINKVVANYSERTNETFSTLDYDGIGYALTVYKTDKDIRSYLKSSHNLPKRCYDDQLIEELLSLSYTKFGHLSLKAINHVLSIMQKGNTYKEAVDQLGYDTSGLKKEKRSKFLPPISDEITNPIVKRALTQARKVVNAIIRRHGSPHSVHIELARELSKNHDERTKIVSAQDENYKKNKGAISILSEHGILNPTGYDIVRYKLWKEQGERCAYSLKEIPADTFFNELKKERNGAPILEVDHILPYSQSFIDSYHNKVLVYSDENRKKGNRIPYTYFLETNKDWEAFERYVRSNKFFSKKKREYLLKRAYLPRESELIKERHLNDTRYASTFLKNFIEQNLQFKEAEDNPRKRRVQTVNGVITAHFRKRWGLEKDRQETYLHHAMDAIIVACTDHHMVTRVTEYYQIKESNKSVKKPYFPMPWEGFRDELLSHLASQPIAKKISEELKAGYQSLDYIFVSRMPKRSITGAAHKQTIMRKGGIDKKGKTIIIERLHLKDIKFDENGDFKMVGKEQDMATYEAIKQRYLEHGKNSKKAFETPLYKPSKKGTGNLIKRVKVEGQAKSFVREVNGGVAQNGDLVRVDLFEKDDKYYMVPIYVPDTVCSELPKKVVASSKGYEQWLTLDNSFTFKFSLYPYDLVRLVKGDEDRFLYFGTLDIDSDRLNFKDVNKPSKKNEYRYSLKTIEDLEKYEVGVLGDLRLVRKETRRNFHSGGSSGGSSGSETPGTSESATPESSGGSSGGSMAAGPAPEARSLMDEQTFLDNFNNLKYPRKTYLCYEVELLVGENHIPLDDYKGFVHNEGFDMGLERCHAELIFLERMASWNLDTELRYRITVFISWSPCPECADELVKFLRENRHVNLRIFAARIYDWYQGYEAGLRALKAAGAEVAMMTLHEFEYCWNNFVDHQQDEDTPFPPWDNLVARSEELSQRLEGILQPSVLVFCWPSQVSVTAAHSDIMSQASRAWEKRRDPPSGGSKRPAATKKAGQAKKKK

nAPG07433.1-APG05840 = nAPG07433.1-APG05840 (synthetic); experiment: as above; conditions: tags: SV40 NLS, 3xFLAG N-term; nucleoplasmin NLS C-term

B1: SGN000930 sgRNA ; SGN000930 target (ssRNA ; dsDNA)
RNA: GAACAACUCAAAUGGAAAUGAAUAUGUCAUAGUUCCAUGAAAGCCAAAAGUGGCUUUGAUGUUUCUAUGAUAAGGGUUUCGGCCCGUGGCGUCGGGGAUCGCCUGCCCAUUCCGAUGGGCUUCUCCCCAUUUAUU
DNA 1: GAACAACTCAAATGGAAATGAATAT
DNA 2: ATATTCATTTCCATTTGAGTTGTTC
B1 gave an activity (nAPG07433.1-APG09980) of 18.4 % mutated reads and an activity (nAPG07433.1-APG05840) of 17.5 % mutated reads.
